Experiment [1] relates to HIF-1 transcriptional activity. Description: HRE-dependent luciferase reporter gene assay in PC-3 cells. Type of experiment: cell-based. The conditions noted are these: pooled PC-3-MSF-A vs PC-3-Neo cells. The procedure: Reporter gene assay and luminescence measurements—HRE-dependent luciferase activity was performed using the pBI-GL construct (pBI-GL V6L) containing six tandem copies of the VEGF hypoxia response element as previously described (Mabjeesh et al., 2002; Post and Van Meir, 2001). Cells were grown in 6-well plates and then transiently transfected in triplicate with a total of 1 μg DNA including 0.1 μg of the reporter plasmid, pBI-GL V6L. Duplicate sets of transfected cell-culture plates were then separated and incubated for 16 hours under either normoxic or hypoxic conditions. Luciferase enzymatic activity was measured using the commercial kit TROPIX (Bedford, Mass.) in the Galaxy luminometer (BMG Labtechnologies LUMIstar) following the manufacturer's instructions. Arbitrary Luciferase activity units were normalized to the amount of protein in each assay point.
To investigate the effect of MSF-A binding on HIF-1α function, the transcriptional activity of the HIF-1 complex was determined using a reporter gene assay as previously described (Mabjeesh N J et al. 2ME2 inhibits tumor growth and angiogenesis by disrupting microtubules and dysregulating HIF. Cancer Cell 2003; 3: 363-375). […]
(In a reporter assay the amount or activity of a reporter protein is the signal.)

For another experiment, the target named is T1, HIF-1α protein (Homo sapiens, UniProt Q16665).
T1 construct: expressed in transfected cells; host or cells: HEK 293
The experiment is described as follows: Co-immunoprecipitation / immunoblotting with HIF-1α in transfected HEK 293 cells. Type of experiment: binding. To be noted: transient transfection. The protocol:
FIGS. 9a-c are Western blot analyses of FLAG (MSF-A; FIGS. 9a and b) and HIF-1α (FIG. 9c) depicting the interaction between HIF-1α and the WT or deleted forms of MSF-A. HEK 293 cells were transiently co-transfected with expression vector encoding Flag-MSF-A (WT; p3xFlag-MSF-A), Flag-ΔG (AG; p3xFlag-ΔG-MSF-A), Flag-ΔN (ΔN; p3xFlag-ΔN-MSF-A) or empty vector (EV; p3xFlag-cmv-25). After 48 hours, the cells were lysed, subjected for immunoprecipitation (IP) using HIF-1α antibody and then immunoblotted (IB) with HIF-1α or Flag antibodies. FIG. 9a—whole cell extracts (WCE) subjected to IB with the Flag antibody (MSF-A); FIG. 9b—IP prepared by the HIF-1α antibody were subjected to IB with the Flag antibody (MSF-A); FIG. 9c—IP prepared by the HIF-1α antibody were subjected to IB with the HIF-1α antibody.
Immunoblotting—Proteins (30-60 μg/lane) from WCEs were resolved by 7.5% SDS-PAGE, electro-blotted to nitrocellulose membranes and incubated with the indicated primary antibodies, followed by horseradish peroxidase-conjugated secondary antiserum (Amersham Biosciences, Piscataway, N.J.). Immunoreactivity was visualized by Amersham enhanced chemiluminescence reagent (Amersham Biosciences, Piscataway, N.J.). For sequential blotting with additional antibodies, the membranes were stripped from the first primary antibody using a restore Western blot stripping buffer (Pierce, Rockford, Ill.) and were re-probed using the second primary antibody as indicated.
Immunoprecipitation—Cells were washed twice with ice-cold PBS, lysed in 20 mM Na-HEPES, pH 7.5, 0.5% Nonidet P-40, 0.1M NaCl, 2 mM EDTA, 10% Glycerol and 2 mM DTT supplemented with protease and phosphatase inhibitors, and were subjected to immunoprecipitation using anti-HIF-1α antibody and protein G-agarose beads (Pierce, Ill.) according to the manufacturer's instructions.
To confirm the interaction between the HIF-1α and the MSF-A proteins, HEK 293 cells were transiently co-transfected with the p3xFlag-MSF-A and the pcDNA3.1-HIF-1α vectors, and were grown for 24 hours under normoxic conditions (i.e., conditions of 20% oxygen), following which whole cell extracts (WCE) were subjected to co-immunoprecipitation (IP) using anti-FLAG or anti-HIF-1α antibodies. Following IP, the proteins were subjected to SDS-PAGE and immunoblotting (IB) using the counterpart antibody. As is shown in FIGS. 3a-d, following transfection with both expression vectors (i.e., pcDNA3.1-HIF-1α and p3xFlag-MSF-A) immunoprecipitates generated using either the anti-HIF-1α antibody or the anti-Flag antibody included the reciprocal proteins, i.e., the Flag-MSF-A or HIF-1α proteins, respectively.
A general note: In western blotting, separated proteins are transferred to a membrane and probed.

The test system of the next experiment is PC-3 cells. The experiment is described as follows: Cell proliferation assay with XTT reagent. To be noted: PC-3-MSF-A vs PC-3-Neo cells, normoxia and hypoxia. Type of experiment: cell-based. The procedure:
FIG. 13 is a graph depicting the effect of MSF-A over-expression on cell proliferation. PC-3-Neo and PC-3-MSF-A cells were grown under normoxic and hypoxic conditions for the indicated time and then analyzed for proliferation using XTT assay. Proliferation was expressed as increase in % of the initial O.D. measured on the next day of seeding which was considered 100%. Growth media were not changed until the end of the experiment.
Cell proliferation assay with XTT reagent—For cell proliferation assay, PC-3-Neo and PC-3-MSF-A cells were seeded in 96 well-plates (1000 cells/well in 200 μLI) using a 3-bis-(2-methoxy-4-nitro-5 sulfenyl)-(2H)-tetrazolium-5-carboxanilide (XTT) kit (Biological Industries Ltd. Kibbutz Beit Haemek, Israel). Wells filled with media served as a control. On the next day, the cells were cultured either under normoxic or hypoxic conditions. XTT reagent was added at days 0, 2, 4 and 6 following the manufacturer's instructions. The absorbance of the samples was measured using a microplate reader at a wavelength of 450 nm using Elisa reader 680 (Bio-rad, Hercules, Calif.). All experiments were performed in triplicate.
In general terms: Tetrazolium assays rely on reduction of a dye to a coloured formazan, in cell work by metabolically active cells.

T1 sequence (Q16665 whole entry): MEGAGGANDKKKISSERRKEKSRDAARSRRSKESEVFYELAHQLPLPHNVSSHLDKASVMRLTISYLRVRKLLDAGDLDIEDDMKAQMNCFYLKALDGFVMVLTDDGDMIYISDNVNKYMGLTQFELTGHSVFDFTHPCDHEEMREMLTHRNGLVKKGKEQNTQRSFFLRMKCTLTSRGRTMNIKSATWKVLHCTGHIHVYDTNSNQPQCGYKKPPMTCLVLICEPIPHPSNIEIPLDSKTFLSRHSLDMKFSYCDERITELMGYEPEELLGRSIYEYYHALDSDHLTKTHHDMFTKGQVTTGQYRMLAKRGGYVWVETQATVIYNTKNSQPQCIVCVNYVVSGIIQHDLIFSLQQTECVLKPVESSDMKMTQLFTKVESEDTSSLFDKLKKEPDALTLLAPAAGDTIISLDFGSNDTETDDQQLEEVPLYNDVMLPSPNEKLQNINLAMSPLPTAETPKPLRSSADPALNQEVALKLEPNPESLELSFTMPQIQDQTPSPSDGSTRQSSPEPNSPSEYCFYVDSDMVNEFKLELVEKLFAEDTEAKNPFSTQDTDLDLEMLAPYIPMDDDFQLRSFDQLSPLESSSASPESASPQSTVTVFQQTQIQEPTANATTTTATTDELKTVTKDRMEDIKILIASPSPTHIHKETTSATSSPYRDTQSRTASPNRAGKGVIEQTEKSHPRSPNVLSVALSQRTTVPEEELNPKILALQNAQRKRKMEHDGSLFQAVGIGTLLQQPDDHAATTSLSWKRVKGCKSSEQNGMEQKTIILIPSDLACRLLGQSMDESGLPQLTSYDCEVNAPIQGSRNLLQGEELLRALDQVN

B1: MSF-A: myeloid/lymphoid leukemia septin-like fusion protein A (SEQ ID NO:3), over-expressed from the p3xFlag-MSF-A vector (protein, listed as Homo sapiens)
chain: MKKSYSGGTRTSSGRLRRLGDSSGPALKRSFEVEEVETPNSTPPRRVQTPLLRATVASSTQKFQDLGVKNSEPSARHVDSLSQRSPKASLRRVELSGPKAAEPVSRRTELSIDISSKQVENAGAIGPSRFGLKRAEVLGHKTPEPAPRRTEITIVKPQESAHRRMEPPASKVPEVPTAPATDAAPKRVEIQMPKPAEAPTAPSPAQTLENSEPAPVSQLQSRLEPKPQPPVAEATPRSQEATEAAPSCVGDMADTPRDAGLKQAPASRNEKAPVDFGYVGIDSILEQMRRKAMKQGFEFNIMVVGQSGLGKSTLINTLFKSKISRKSVQPTSEERIPKTIEIKSITHDIEEKGVRMKLTVIDTPGFGDHINNENCWQPIMKFINDQYEKYLQEEVNINRKKRIPDTRVHCCLYFIPATGHSLRPLDIEFMKRLSKVVNIVPVIAKADTLTLEERVHFKQRITADLLSNGIDVYPQKEFDEDSEDRLVNEKFREMIPFAVVGSDHEYQVNGKRILGRKTKWGTIEVENTTHCEFAYLRDLLIRTHMQNIKDITSSIHFEAYRVKRLNEGSSAMANGVEEKEPEAPEM
modifications: 3xFlag tag
Turning to B1, in experiment [1], the “HIF-1 transcriptional activity (luciferase assay), stable transfectants” value is recorded as “significant increase”. The “association with HIF-1α protein (co-immunoprecipitation)” value with HIF-1α protein is on record as “strong association”. Besides, the “proliferation rate (XTT)” value in the experiment with PC-3 cells is “higher”.

(Values after patent publication US8143228B2, “Agents capable of downregulating an MSF-A dependent HIF-1α and use thereof in cancer treatment” (Medical Research Fund of Tel Aviv Sourasky Medical Center, priority 2004, dated 2012).)
